Test results from patent US20040233833A1, “Methods for identifying compounds with thrapeutic potential for treatment of central Neurodegenerative diseases resulting from abnormal protein or peptide accumulation” (priority 2001, published 2004).

Tests used:
proteasome = proteasome (Homo sapiens, UniProt P28072+P28074+Q99436); experiment: REGα(N146Y)/REGβ(N135Y) competition assay for relative proteasome affinity; type: binding; conditions: in terms of REGα(N146Y)/REGβ(N135Y) competition; wild-type REGγ 100
Excerpt: As a measure of the relative affinities of REGγ and the REGγLys188 mutants for the proteasome, a competition assay was used. See Li et al. (2000), The Proteasome Activator 11S REG or PA28: Chimeras Implicate Carboxyl-Terminal Sequences in Oligomerization and Proteasome Binding But Not in the Activation of Specific Proteasome Catalytic Subunits. J. Mol. Biol. 299:641-54. All REGγLys188 mutants were relatively resistant to REGα(N146Y)/REGβ(N135Y) competition with apparent proteasome affinities varying from 40% to 90% that of wild-type REGγ.

[1] = Heptamer stability on rechromatography (Superdex 200 size exclusion column); type: physicochemical; conditions: for Percent heptamer: after second gel filtration; for Percentage that remained heptamers on rechromatography: Superdex 200 second gel filtration
Excerpt: To examine the effect of Lys188 substitution on REGγ heptamer stability, the wildtype and Lys 188 variant heptamers were rechromatographed on the Superdex 200 (26/60) size exclusion column used for purification. […] Replacement of Lys 188 by Pro or Phe severely affected the stability of REGγ heptamer.

[2] = target: T1, Human red blood cell proteasomes (Homo sapiens, UniProt P28072+P28074+Q99436); experiment: Activation of fluorogenic peptide hydrolysis by the proteasome in the presence of REG variants; type: biochemical; conditions: for Stimulation of cleavage (x-fold) LLE: substrate LLE-βNA (PGPH site); for Stimulation of cleavage (x-fold) LLVY: substrate LLVY-MCA (chymotrypsin-like site); for Stimulation of cleavage (x-fold) LRR: substrate LRR-MCA (trypsin-like site); for Stimulation of hydrolysis of LLVY-MCA and LLE-βNA: summary of Table 1
T1 construct: Human red blood cell proteasomes; from tissue; host or cells: human red blood cells
Method: Human red blood cell proteasomes (170 ng) were mixed with increasing amounts of purified REG variants. The reactions were started by adding 50 μl of 200 μMscu-LLVY-MCA, Boc-LRR-MCA, or Boc-LLE-βNA in 10 mM Tris, pH 7.5. After a 10 min incubation, the reaction was quenched with 200μl of cold 100% ethanol, and the released MCA or βNA ws measured fluometrically. Each data point represents the mean of three measurements from a single experiment. […] REGα (▪), REGγ(□), REGγ(K188E) or REGγ(K188D) (●), REGγ(K188H) (∘), REGγ(K188Q) or REGγ(K188N) (Δ), REGγ(K188A) (♦). The data for REGγ(K188E) and REGγ(K188D) and for REGγ(K188Q) and REGγ(K188N) were combined since their activities were indistinguishable.
Because each positive variant identified in the previous example included a mutation at Lys188, site-directed mutagenesis was used to generate a series of amino acid substitutions at this residue. Twelve mutants were constructed in which Lys188 of REGγ was changed to Ala, Arg, Asn, Asp, Cys, Gln, Glu, His, Ile, Phe, Pro, or Ser. Wild-type REGγ and the Lys 188 variants were expressed in E. coli, purified, and the activation specificity of each protein was measured using the diagnostic peptides LLVY (SEQ ID NO:1)-MCA, LRR-MCA, and LLE-βNA. Except for the K188R variant, all Lys 188 mutants stimulated the hydrolysis of LRR-MCA by the proteasome to the same extent or slightly better than wild-type REGγ. Substitution of negatively-charged Glu or Asp for the positively-charged Lys188 produced mutants with activation properties almost identical to REGα.
To determine the degree to which the activation specificity of REGγ(K188E/D) variants matches that of REGα, proteasomal cleavage of a series of fluorogenic peptides was measured in the presence of each activator.

[3] = target: proteasome (chymotrypsin-like activity) (Homo sapiens, UniProt P28072+P28074+Q99436); experiment: Activity screen of E. coli lysates expressing mutagenized REGγ for stimulation of LLVY-MCA cleavage; type: biochemical; conditions: 170 ng proteasome, 100 μM LLVY-MCA, 10-minute incubation; 1400 colonies
Method: Error-prone PCR was used to introduce random mutation into the REGγ DNA. See Zhang et al., (1998)Idnetification of an Activation Region in the Proteasome Activator REGα. Proc. Natl. Acad. Sci. 95:2807-2811. The PCR products were inserted into pET26(b) through NdeI/BamHI sites. The resulting plasmid library was transformed into BL21(DE3) cells. About 60% of the isolated colonies contained a single-site mutation.
Transformants were picked and grown at 37° C. in LB containing 25 μg/ml kanamycin. Protein expression was induced with 0.8 mM IPTG for 2 hours at 30° C. Cells were collected by centrifugation and lysed with 10 mM Tris-HCL, pH 7.5, 0.5% Triton X-100, and 0.3 mg/ml polymixin B sulfate. Aliquots were incubated with 170 ng proteasome and 100 μM LLVY (SEQ ID NO:1)-MCA. After a 10-minute incubation, reactions were terminated with 200 μl of ethanol and fluorescence was measured. See Li et al (2000), The Proteasome Activator 11S REG or PA28: Chimeras Implicate Carboxyl-Terminal Sequences in Oligomerization and Proteasome Binding But Not in the Activation of Specific Proteasome Catalytic Subunits, J. Mol. Biol. 299:641-54.

proteasomes = proteasomes (Homo sapiens, UniProt P28072+P28074+Q99436); experiment: Proteasomal degradation of fluorescein-labeled polyQ peptides (molecular exclusion chromatography); type: biochemical; conditions: proteasome + activator, 5 hr incubation
Method: The following peptides were synthesized using routine peptide synthesis:
Each peptide was incubated for 5 hr with proteasomes alone, proteasomes+REGγ, proteasome+REGγ(K188E) or proteasomes+REGα/β. Degradation was assayed by molecular exclusion chromatography using fluorescein as a signal (see FIG. 2). The degradation products were identified by HPLC-MS (FIG. 3). […] By contrast, in the presence of REGγ(K188E) the various polyQ peptides were degraded 5 to 10-fold faster.

Substance: γK188N: mutant REGγ in which Lys188 was changed to Asn
- Relative affinity for proteasome (proteasome): 75
- Percent heptamer [1]: 80%
- Stimulation of cleavage (x-fold) LLE [2]: 5 x-fold
- Stimulation of cleavage (x-fold) LLVY [2]: 5 x-fold
- Stimulation of cleavage (x-fold) LRR [2]: 14 x-fold
- Colony screen for stimulation of LLVY-MCA cleavage [3]: positive

Substance: γK188Q: mutant REGγ in which Lys188 was changed to Gln
- Relative affinity for proteasome (proteasome): 75
- Percent heptamer [1]: 80%
- Stimulation of cleavage (x-fold) LLE [2]: 5 x-fold
- Stimulation of cleavage (x-fold) LLVY [2]: 5 x-fold
- Stimulation of cleavage (x-fold) LRR [2]: 14 x-fold

Substance: γK188R: mutant REGγ in which Lys188 was changed to Arg
- Relative affinity for proteasome (proteasome): 75
- Percentage that remained heptamers on rechromatography [1]: remained fully heptameric
- Percent heptamer [1]: >95%
- Stimulation of cleavage (x-fold) LLE [2]: 0.7 x-fold
- Stimulation of cleavage (x-fold) LLVY [2]: 0.7 x-fold
- Stimulation of cleavage (x-fold) LRR [2]: 10 x-fold

Substance: γK188I: mutant REGγ in which Lys188 was changed to Ile
- Relative affinity for proteasome (proteasome): 60
- Percentage that remained heptamers on rechromatography [1]: remained fully heptameric
- Percent heptamer [1]: >95%
- Stimulation of cleavage (x-fold) LLE [2]: 3 x-fold
- Stimulation of cleavage (x-fold) LLVY [2]: 2 x-fold
- Stimulation of cleavage (x-fold) LRR [2]: 12 x-fold
- Stimulation of hydrolysis of LLVY-MCA and LLE-βNA [2]: 2 fold

Substance: REGα/β: REGα/β hetero-heptamer proteasome activator
- % Degraded, substrate F1-EPQPQ (proteasomes): 55%
- % Degraded, substrate F1-KSQPQ (proteasomes): 85%
- % Degraded, substrate F1-QHQ (proteasomes): 80%
- % Degraded, substrate F1-QPQ (proteasomes): 85%
- % Degraded, substrate F1-QQQ (proteasomes): 85%

Substance: γK188P: mutant REGγ in which Lys188 was changed to Pro
- Relative affinity for proteasome (proteasome): 40
- Heptamers dissociated during the second gel filtration ([1]; Superdex 200): About 50%
- Percent heptamer [1]: 50%
- Stimulation of cleavage (x-fold) LLE [2]: 1 x-fold
- Stimulation of cleavage (x-fold) LLVY [2]: 1 x-fold
- Stimulation of cleavage (x-fold) LRR [2]: 12 x-fold

Substance: γK188H: mutant REGγ in which Lys188 was changed to His
- Relative affinity for proteasome (proteasome): 50
- Percentage that remained heptamers on rechromatography [1]: remained fully heptameric
- Percent heptamer [1]: >95%
- Stimulation of cleavage (x-fold) LLE [2]: 4 x-fold
- Stimulation of cleavage (x-fold) LLVY [2]: 5 x-fold
- Stimulation of cleavage (x-fold) LRR [2]: 14 x-fold

Substance: (L38V, K188N): REGγ double mutant L38V, K188N isolated from the error-prone PCR library
- Colony screen for stimulation of LLVY-MCA cleavage [3]: positive

Substance: γKI88S: mutant REGγ in which Lys188 was changed to Ser
- Relative affinity for proteasome (proteasome): 50
- Percentage that remained heptamers on rechromatography [1]: remained fully heptameric
- Percent heptamer [1]: >95%
- Stimulation of cleavage (x-fold) LLE [2]: 3 x-fold
- Stimulation of cleavage (x-fold) LLVY [2]: 3 x-fold
- Stimulation of cleavage (x-fold) LRR [2]: 14 x-fold

Substance: (L71P, K188E): REGγ double mutant L71P, K188E isolated from the error-prone PCR library
- Colony screen for stimulation of LLVY-MCA cleavage [3]: positive

Substance: γKl88C: mutant REGγ in which Lys188 was changed to Cys
- Relative affinity for proteasome (proteasome): 60
- Percent heptamer [1]: 70%
- Stimulation of cleavage (x-fold) LLE [2]: 5 x-fold
- Stimulation of cleavage (x-fold) LLVY [2]: 6 x-fold
- Stimulation of cleavage (x-fold) LRR [2]: 13 x-fold
- Stimulation of hydrolysis of LLVY-MCA and LLE-βNA [2]: 6 fold

Substance: γK188F: mutant REGγ in which Lys188 was changed to Phe
- Relative affinity for proteasome (proteasome): 40
- Percentage that remained heptamers on rechromatography [1]: remained monomers or dimers
- Percent heptamer [1]: Dimer
- Stimulation of cleavage (x-fold) LLE [2]: 4 x-fold
- Stimulation of cleavage (x-fold) LLVY [2]: 4 x-fold
- Stimulation of cleavage (x-fold) LRR [2]: 13 x-fold

Substance: γK188A: mutant REGγ in which Lys188 was changed to Ala
- Relative affinity for proteasome (proteasome): 60
- Percent heptamer [1]: 60%
- Stimulation of cleavage (x-fold) LLE [2]: 6 x-fold
- Stimulation of cleavage (x-fold) LLVY [2]: 6 x-fold
- Stimulation of cleavage (x-fold) LRR [2]: 13 x-fold
- Stimulation of hydrolysis of LLVY-MCA and LLE-βNA [2]: 6 fold

Substance: (F102I, K188N): REGγ double mutant F102I, K188N isolated from the error-prone PCR library
- Colony screen for stimulation of LLVY-MCA cleavage [3]: positive
